Changes are numbered by the printed parent chain. In names and notes the source's numbering stands. Several values for one entry are separate records, joined by “and”; a condition that tells them apart may be missing. Equal values may be shown once. Read-outs that look alike come from different tables or passages of the source.
Legend:
[1] = molecular target: T1, human MDR1 (multidrug resistance protein 1) (human, UniProt P08183 1-1280); assay: cell-based or functional assay
[2] = molecular target: T2, cynomolgus MDR1 (Macaca fascicularis) (Macaca fascicularis (cynomolgus), UniProt P08183 1-1280 (human entry)); assay: flow cytometry
T2 construct: also called cB1; cynomolgus ABCB1

[3] = molecular target: T2, cynomolgus MDR1 (Macaca fascicularis); assay: flow cytometry, 293T cells transfected with cynomolgus MDR1
[4] = molecular target: T1, human MDR1 (multidrug resistance …); assay: cell-based or functional assay; remark: listed apart in the source
[5] = molecular target: T1, human MDR1 (multidrug resistance …); assay: flow cytometry, 293T cells stably expressing human ABCB1 (293T_ABCB1_OX)
[6] = molecular target: T3, human CD47 (human, UniProt Q08722 19-323); assay: binding to C6 cells overexpressing human CD47 (FIGS. 17A-17B)
T3 construct: whole, on cells; Overexpressed on rat C6 cells, or endogenous on human tumour cell lines; also called KT14; hKT14

[7] = molecular target: T1, human MDR1 (multidrug resistance …); assay: binding to C6 cells overexpressing human ABCB1 (FIGS. 17A-17B)
[8] = molecular target: T1, human MDR1 (multidrug resistance …); assay: flow cytometry
[9] = molecular target: T1, human MDR1 (multidrug resistance …); assay: flow cytometry, 293T cells overexpressing human MDR1
[10] = molecular target: T2, cynomolgus MDR1 (Macaca fascicularis); assay: flow cytometry on cells expressing cynomolgus MDR1
[11] = molecular target: T3, human CD47; assay: binding to C6 cells expressing human CD47, figure legend

B1: B1.129 (antibody, human IgG1, V domains shown)
VH: EVQLQQSGPELVKPGASVKMSCKASGYTFSTYVIHWVKQKPGQGLEWIGYIYPYNDYTKYNEKFKDKATLTSDKSSSTAYMEIRSLTSEDSAVYYCSRAYYGNLVGYGVDYWGQGTSVTVSS
VL: QIVLTQSPAILPASPGEKVTMTCRASSSVSFIYWYQQRPGSSPKPWIFATSNLASGVPARFSGSGSGTSYSLTISRVEAEDAATYYCHQWGSNLPTFGGGTKLEIK
notes: expressed with human IgG1 heavy and human kappa light constant regions; also called KNJY B1-129; KB1.129
- IC50 of vincristine on N6/ADR cells with antibody [1]: 0.0132 nM
- binding result [2]: binds

B2: B1.28 (antibody, human IgG1, V domains shown)
VH: EVKLVESGGGLVKPGGSLKLSCAASGFTFGLYTMSWVRQTPERRLEWVATISSGGSNTYYPDSVKGRFTISRDNAKNNLFLQMNSLRSEDTALYYCARYYRYDAWFAYWGQGTLVTVSS
VL: DVLLTQTPLSLPVSLGDQASISCRSSQNIVHSTGNTYLDWYLQKPGQSPKLLIYKVSNRFSGVPDRFSGSGSGTDFTLKISRVEAEDLGVYFCFQGSHIPRTFGGGTKLEIK
notes: expressed with human IgG1 heavy and human kappa light constant regions; also called KNJY B1-28; KB1.28
- IC50 of vincristine on N6/ADR cells with antibody [1]: 3.34 nM and 2.87 nM
- binding result [3]: binds

B3: MRK16 (antibody, V domains shown)
VH: B2 VH with K3I, G30S, L31S, R43K, S56G, F80Y, N84S, D103E, Y108S, S119A
VL: B2 VL with L4M, L9V, P12S, N28S, D39E, V56I, F92Y, G96A, I99F
- IC50 of vincristine on N6/ADR cells with antibody [4]: 0.734 nM

B4: BisAb-1 (15D3 HC-Hz1 DD hIgG1 / KT14 IgG1 KK / B1-28 VL humaniz) (bispecific antibody)
VH: EVQLVESGGVVVQPGGSLRLSCAASGFTFSRYTMSWVRQAPGKGLEWVATISSGGGQTYYPDSVKGRFTVSRDNSKNSLYLQMNSLRTEDTALYYCARYGAGDAWFAYWGQGTLVTVSS
heavy: not shown
VL: B2 VL with L3V, T7S, S14T, D17Q, Q18P, L42Q, K44R, K50R, L88V, G105Q
notes: The 15D3 Hz1 VH is fused to human IgG1 Fc with K392D and K409D (EU)
- IC50 of vincristine on N6/ADR cells with antibody [4]: 0.0064 nM
- EC50 [5]: 118 nM

B5: 15D3DD KT14KK B1.89v1 LC (bispecific antibody, human IgG1)
heavy 1: not shown
heavy 2: not shown
VL: B2 VL with L4M, N28T, T33N, D39E, N58K, F92Y, G96A, I99F
notes: also called 15D3DD/KT14KK/89v1
- binding result [6]: binds
- binding result [7]: binds

B6: 15D3DD KT14KK B1.28.huL2 LC (bispecific antibody, human IgG1)
heavy 1: not shown
heavy 2: not shown
VL: B2 VL with L3V, T7S, S14T, L15P, D17E, Q18P, K50Q, L88V, F92Y, G105Q
- binding result [7]: binds

B7: 15D3 (antibody, V domains shown)
VH: EVKVVESGGVLVRPGGSLKLSCAASGFTFSRYTMSWVRQTPEKRLEWVATISSGGGNTYYPDSVKGRFTVSRDNAMSSLYLQMSSLRSEDTALYYCARYGAGDAWFAYWGQGTLVTVSS
VL: B2 VL with L4M, N28S, D39E, V83L, F92Y, I99F, K108R
notes: Known anti-MDR1 antibody; also called KPA01; 15D3 hybridoma
- IC50 of vincristine on N6/ADR cells with antibody [4]: 0.466 nM
- EC50 [5]: 14.6 nM

B8: B1.129.huH1-huL1(KV3) (antibody, human IgG1, V domains shown)
VH: EVQLVQSGAEVKKPGASVKVSCKASGYTFSTYVIHWVRQAPGQGLEWIGYIYPYNDYTKYNEKFKDRATLTSDKSTSTAYMELRSLRSDDTAVYYCSRAYYGNLVGYGVDYWGQGTTVTVSS
VL: EIVLTQSPATLSLSPGERATLSCRASSSVSFIYWYQQKPGQSPRPWIFATSNLASGVPARFSGSGSGTDYTLTISSLEPEDFAVYYCHQWGSNLPTFGGGTKLEIK
notes: Humanized B1.129; Human IgG1/kappa constant regions; also called B1.129.hz1
- binding result [8]: binds
- binding result [3]: binds

B9: B1.129.huH1-huL1(KV1) (antibody, human IgG1, V domains shown)
VH: B8 VH
VL: DIQLTQSPSSLSASVGDRVTITCRASSSVSFIYWYQQKPGKSPKPWIFATSNLASGVPSRFSGSGSGTDYTLTISSLQPEDFATYYCHQWGSNLPTFGGGTKLEIK
notes: Humanized B1.129; Human IgG1/kappa constant regions; also called B1.129.hz2
- binding result [9]: no binding
- binding result [3]: no binding

B10: 15D3DD KT14KK MRK16v5 LC (bispecific antibody, human IgG1)
heavy 1: not shown
heavy 2: not shown
VL: DIVMTQTPLSSPVTLGQPASISCRSSQSIVYSNGNTYLEWYQQKPGQPPRLLIYKISNRFSGVPDRFSGSGAGTDFTLKISRVEAEDVGVYYCFQASHFPRTFGGGTKLEIK
- binding result [6]: binds
- binding result [7]: binds

B11: B1.261 (antibody, human IgG1, V domains shown)
VH: QVQLKESGPGLVAPSQSLSITCTVSGFSLTSYGVHWVRQPPGKGLEWLVVIWSDGSTTYNSALKSRLSISKDNSKSQVFLKMNSLQIDDTAMYYCARHGRWLLQRGGAMDYWGQGTSVTVSS
VL: DVVMTQAPKFMSTSVGDRVSVTCRASQNVGSYIAWYQQKLGQSPKALIYSASYRCSGVPDRFTGSGAGTDFTLTIRNVQSEDLAEYFCQQYNSYPLTFGGGTKLEIK
notes: expressed with human IgG1 heavy and human kappa light constant regions; also called KNJY B1-261; KB1.261
- IC50 of vincristine on N6/ADR cells with antibody [1]: 0.0038 nM
- binding result [10]: binds

B12: KT14.5F9hu scFv-B1.261.hu1 (bispecific antibody, human IgG1, kappa)
scFv: not shown
heavy: EVQLQESGPGLVKPSETLSLTCTVSGFSLTSYGVHWVRQPPGKGLEWLVVIWSDGSTTYNSALKSRLTISKDNSKNQVSLKLSSVTAADTAVYYCARHGRWLLQRGGAMDYWGQGTMVTVSSASTKGPSVFPLAPSSKSTSGGTAALGCLVKDYFPEPVTVSWNSGALTSGVHTFPAVLQSSGLYSLSSVVTVPSSSLGTQTYICNVNHKPSNTKVDKRVEPKSCDKTHTCPPCPAPELLGGPSVFLFPPKPKDTLMISRTPEVTCVVVDVSHEDPEVKFNWYVDGVEVHNAKTKPREEQYNSTYRVVSVLTVLHQDWLNGKEYKCKVSNKALPAPIEKTISKAKGQPREPQVCTLPPSREEMTKNQVSLSCAVKGFYPSDIAVEWESNGQPENNYKTTPPVLDSDGSFFLVSKLTVDKSRWQQGNVFSCSVMHEALHNHYTQKSLSLSPGK
light: DVQMTQSPSSLSASVGDRVTITCRASQNVGSYIAWYQQKPGKSPKALIYSASYRSSGVPSRFSGSGAGTDFTLTISSLQPEDFATYFCQQYNSYPLTFGGGTKLEIKRTVAAPSVFIFPPSDEQLKSGTASVVCLLNNFYPREAKVQWKVDNALQSGNSQESVTEQDSKDSTYSLSSTLTLSKADYEKHKVYACEVTHQGLSSPVTKSFNRGEC
- binding result [11]: binds

B13: KT14.B6H12hu scFv-B1.261.hu1 (bispecific antibody, human IgG1, kappa)
scFv: not shown
heavy: B12 heavy
light: B12 light
- binding result [11]: binds
